B1: Myelin regulatory factor homolog 1 (Caenorhabditis elegans), G5EFI7 (parent)
chain: MSSSDLLKGEFDGLNSEHFNMMQYLTQDTDEDDGSMVSPTSSADSMHQNLGVQQQQQQMLQAQQRQNQNGIFQPRRFPESPAMTDPCGNVSSSSSSSHHSDPMFSPNEFNGYAGANDNGNQTMNNIQSQQLSQQQHQQTRGGNLMMPQQSSIHAQMQNMNAPQFWSQPGTAAVNQPTNTLAQLNLFNIIRGGADSGMPSPVLEMPRKRSRLDTPCETPRIAPSFAGIDGFPDENYSQQQAIRFSKFQEEQWSPLYDINAQPLQQLQVHVVADKGFNYNSNDNCFVNQKKNHFQISVNVEASDTMPPKYVNFNNRLVPIRDFKLSFCGVKAEMPSSEITIRQSRADRKPHTHTPVLFEIQERRMTKVCVPRLHFSETTLNNQRKQKNRPNPEQKFFLLVVRLFASIDESEHGVLIQSYASEKVIVRATNPGSFEPQDTDIGWQRNGGALYTQGAVSVGTEHQVESAKLTVAGDIYMSGRIINPSDIRLKEAITERETAEAIENLLKLRVVDYRYKPEVADIWGLDEQQRHRTGLIAQELQAVLPDAVRDIGDYLTIDEGRVFYETVMATQQLCRMTGDLDSKIDEKVAEISRRLNEYAVRKKLASSMASNLNGDNKSLSYSRCSLTSTATNATSQPKRSRKHRAIKQAQSCGSRLSQGTVVTLVSIMAACLLAMSALYVLDWHNRNYGYHQHFETNTPSTKGELANLVISPANFMPSFQPDAPILLEKCFNPSCKTYCCTDTPPVVEDSRAIATHGLDNGDEVYPESPSNRTNGIARAPNLEHMAFETGVEIRIPALNVTLDQRYCVERSCNKRKGIFNVFVPVSRYMPDVALEIEIKAPISKVVSNCGAFPSTEFNHKVCPLSRTQQSESPVPTSTRLFDNIFELSMGSFIQSAYRFRVGYSTETCFSEDSNGSYEEYNLIFYRMCTLSSS
partner: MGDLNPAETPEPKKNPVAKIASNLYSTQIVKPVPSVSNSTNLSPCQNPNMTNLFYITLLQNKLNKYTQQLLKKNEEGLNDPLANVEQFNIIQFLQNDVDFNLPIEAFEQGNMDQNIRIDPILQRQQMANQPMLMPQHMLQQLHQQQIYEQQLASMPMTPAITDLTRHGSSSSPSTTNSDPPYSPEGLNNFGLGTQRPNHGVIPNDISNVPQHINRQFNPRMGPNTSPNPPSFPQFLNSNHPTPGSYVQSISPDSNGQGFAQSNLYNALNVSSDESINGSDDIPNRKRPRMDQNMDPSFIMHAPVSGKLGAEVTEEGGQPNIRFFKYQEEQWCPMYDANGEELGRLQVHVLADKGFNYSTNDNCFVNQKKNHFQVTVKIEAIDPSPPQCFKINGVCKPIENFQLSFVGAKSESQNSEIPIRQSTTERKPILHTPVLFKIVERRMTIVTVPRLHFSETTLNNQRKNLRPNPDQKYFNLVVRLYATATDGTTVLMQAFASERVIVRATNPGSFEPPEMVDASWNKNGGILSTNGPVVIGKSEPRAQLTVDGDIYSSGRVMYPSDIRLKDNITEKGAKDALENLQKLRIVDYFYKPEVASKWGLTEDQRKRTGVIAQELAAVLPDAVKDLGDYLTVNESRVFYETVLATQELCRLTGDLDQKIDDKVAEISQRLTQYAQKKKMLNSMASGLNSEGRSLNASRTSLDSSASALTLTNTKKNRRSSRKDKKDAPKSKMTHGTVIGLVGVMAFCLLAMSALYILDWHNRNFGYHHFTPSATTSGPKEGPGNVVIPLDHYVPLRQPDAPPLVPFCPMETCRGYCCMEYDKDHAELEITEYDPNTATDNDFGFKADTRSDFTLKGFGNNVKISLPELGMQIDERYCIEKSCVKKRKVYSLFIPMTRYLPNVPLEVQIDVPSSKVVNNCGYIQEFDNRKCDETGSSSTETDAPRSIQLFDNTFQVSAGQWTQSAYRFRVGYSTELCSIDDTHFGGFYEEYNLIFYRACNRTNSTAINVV

Variants of: B1
Conditions: with myrf2_caeel myrf-2, D9PTN5

Variant | effect of a mutation on the interaction
G274R | with no effect

Reference: IntAct's records for PubMed 28441531
